We go through 5 substances from paper PMC5066845.

Assay [1] has as its target F-actin polymerised on a streptavidin biosensor from biotinylated and non-biotinylated G-actin (1:4) (rabbit | human) (UniProt P68135). In words: BLI. (In general: BLI is a label-free optical method that tracks binding on a fibre tip over time.)
For assay [2], the target named is mouse DNGR-1 extracellular domain (ECD), wild type (mouse). In words: BLI.

Substance “mouse DNGR-1 ECD N140A Y150A (domain or fragment)” came in with a Kd in assay [1] of 2700 nM.

Regarding “mouse DNGR-1 ECD W155A W250A (domain or fragment)”, the Kd in assay [1] was > 100000 nM.

With “mouse DNGR-1 ECD K251A (domain or fragment)”, the Kd in assay [1] is > 50000 nM.

For “mouse DNGR-1 extracellular domain (ECD), wild type (domain or fragment)”, in assay [1], the Kd was determined as 1600 nM, the koff turned out to be 0.848 s⁻¹ and the association rate constant (kon) came out at 1.5e+06 M⁻¹ s⁻¹.

“short F-actin filaments capped and stabilized with gelsolin (from UniProt P60709;P06396) (complex)”: in assay [2], the Kd came out at 8.7 nM, the koff is 6.4e-05 s⁻¹ and the association rate constant (kon) came to 7600 M⁻¹ s⁻¹.

As usually defined, the Kd is a measure of binding affinity in units of concentration. Read a high Kd as a looser complex. In general, koff refers to the first-order rate constant of dissociation. A high value points to a short-lived complex. Usually kon stands for the second-order rate constant of association. Higher therefore signals faster complex formation.
